Test results from patent US20250376529A1 (Amgen, published 2025).
Where a chain is given by its changes, count along the chain named.

T1: Rhesus GIPR (rhesus, UniProt F7E1R9 22-466)
T1 sequence: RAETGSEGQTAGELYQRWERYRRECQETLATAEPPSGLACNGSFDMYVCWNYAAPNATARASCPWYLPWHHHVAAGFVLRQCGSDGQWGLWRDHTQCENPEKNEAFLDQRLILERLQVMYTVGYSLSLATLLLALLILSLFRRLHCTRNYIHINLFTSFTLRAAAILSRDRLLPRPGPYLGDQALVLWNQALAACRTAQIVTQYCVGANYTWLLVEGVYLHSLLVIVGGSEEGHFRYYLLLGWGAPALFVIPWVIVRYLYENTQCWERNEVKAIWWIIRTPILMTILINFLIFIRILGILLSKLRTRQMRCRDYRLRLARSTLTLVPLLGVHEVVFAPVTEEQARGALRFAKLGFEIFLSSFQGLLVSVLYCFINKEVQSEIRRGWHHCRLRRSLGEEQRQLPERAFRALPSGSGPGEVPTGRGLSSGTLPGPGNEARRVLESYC

B1: 4H9.004 (antibody, human IgG1, kappa, N297G, V domains shown)
VH: QVQLVESGGGVVQPGRSLRLSCAASGFTFSYFGMHWVRQAPGKGLEWVAVIWYDGSNKYYADSVKGRFTISRDNSKNTLYLQMNSLRAEDTAVYYCARDGTIFGVLLGDYWGQGTLVTVSS
VL: DIQMTQSPSSLSASVGDRVTITCRASQGIRNELGWYQQKPGKAPKRLIYGASSLQSGVPSRFSGSGSGTEFTLTISSLQPEDFVTYYCLQHNSYPFTFGPGTKVDVKR
B2: 5C2.007 (antibody, human IgG1, kappa, N297G, V domains shown)
VH: QVPLVQSGAEVKKPGASVKVSCKASGYTFTGYYIHWVRQAPGQGLEWMGWINPESGGTDYSQRFQGRFTMTRDTSISTAYMELNRLRSDDTAVYYCAREATIFGMVIVPFDYWGQGTLVTVSS
VL: not shown
B3: 13H12.006 (antibody, human IgG1, kappa, N297G, V domains shown)
VH: B2 VH with F68V, N84S
VL: not shown
B4: 13H12.003 (antibody, human IgG1, kappa, N297G, V domains shown)
VH: B2 VH with N84S
VL: not shown
B5: 13H12.002 (antibody, human IgG1, kappa, N297G, V domains shown)
VH: B2 VH with F68V, N84S
VL: not shown
B6: 13H12 (antibody, human IgG1, kappa, N297G, V domains shown)
VH: B2 VH with E54D, N84S
VL: not shown
B7: 13H12.004 (antibody, human IgG1, kappa, N297G, V domains shown)
VH: B2 VH with E54D, F68V, N84S
VL: not shown
B8: 12H11.002 (antibody, human IgG1, kappa, N297G, V domains shown)
VH: QVPLVQSGAEVKKPGASVKVSCKASGYTFTGYYIHWVRQAPGQGLEWMGWISPNQGETNYAQKFQDRVTMTRDTSISTAYMELSRLRSDDTAVYYCAREATIFGMLIVPFDYWGQGTLVTVSS
VL: DIVMTQSPDSLSVSLGERATINCKSSQSVLSSSNNKNYLAWYQQKPGQPPNLLIYWTSTRDSGVPDRFSGSGSGTDFTLTINSLQAEDVAVYYCQQYYRTPWTFGQGTKVEIKR
B9: 11C1.003 (antibody, human IgG1, kappa, N297G, V domains shown)
VH: B8 VH with E46V, Q55S, E57D, N59S, Y95F
VL: not shown
B10: 11C1.005 (antibody, human IgG1, kappa, N297G, V domains shown)
VH: B8 VH with E46V, Q55S, N59S, Y95F, A97T
VL: not shown
B11: 12H11.003 (antibody, human IgG1, kappa, N297G, V domains shown)
VH: B8 VH with E57D
VL: B8 VL
B12: 11C1.004 (antibody, human IgG1, kappa, N297G, V domains shown)
VH: B8 VH with E46V, Q55S, N59S, Y95F
VL: B8 VL
B13: 11C1.002 (antibody, human IgG1, kappa, N297G, V domains shown)
VH: B8 VH with E46V, Q55S, N59S, Y95F
VL: not shown
B14: 12H11 (antibody, human IgG1, kappa, N297G, V domains shown)
VH: B8 VH with Q55N, E57D, A97T
VL: B8 VL
B15: 11C1.008 (antibody, human IgG1, kappa, N297G, V domains shown)
VH: B8 VH with E46V, Q55S, E57D, N59S, Y95F
VL: B8 VL
B16: 11C1.007 (antibody, human IgG1, kappa, N297G, V domains shown)
VH: B8 VH with E46V, Q55S, N59S, Y95F, A97T
VL: B8 VL
B17: 11C1.006 (antibody, human IgG1, kappa, N297G, V domains shown)
VH: B8 VH with E46V, Q55S, E57D, N59S, Y95F, A97T
VL: not shown
B18: 11C1 (antibody, human IgG1, kappa, N297G, V domains shown)
VH: B8 VH with E46V, Q55S, E57D, N59S, Y95F, A97T
VL: B8 VL
B19: 2G10_LC1.008 (antibody, human IgG1, kappa, N297G, V domains shown)
VH: not shown
VL: EIVMTQSPATLSVSPGERATLSCRASQSVSSNLAWYQQKPGQAPRLLIYGAATRATGIPARFSGSGSGTEFTLTISSLEPEDFAVYYCQQYNNYPLTFGGGTKVEIKR
B20: 2G10_LC1.009 (antibody, human IgG1, kappa, N297G, V domains shown)
VH: not shown
VL: B19 VL with Y94W
B21: 2G10_LC1.010 (antibody, human IgG1, kappa, N297G, V domains shown)
VH: not shown
VL: B19 VL with Y94W
B22: 17H11.004.001 (antibody, human IgG1, kappa, N297G, V domains shown)
VH: QVQLQESGPGLVKPSETLSLTCTVSGGSISSYYWSWIRQPAGKGLEWIGRIYTSGSTNYNPSLKSRVTMSIDTSKNQFSLKLNSVTAADTAVYYCARDVAVAGFDYWGQGTLVTVSS
VL: DIQMTQSPSSVSASVGDRVTITCRASQGLIIWLAWYQQKPGKAPKLLIYAASSLQSGVPSRFSGSGSGTDFTLTISSLQPEDFATYYCQQTNSFPPTFGQGTKVEIKR
notes: also called iPS:359621; iPS:359623
B23: 18E3 (antibody, human IgG1, kappa, N297G)
heavy: not shown
light: EIVLTQSPGTLSLSPGERATLSCRASQSISYSYLAWYQQKPGQAPRLLIYGASSRATGIPDRFSGSGSGTDFTLTISRQEPDDFAVYYCQQYGSSPLTFGGGTKVEIKRTVAAPSVFIFPPSDEQLKSGTASVVCLLNNFYPREAKVQWKVDNALQSGNSQESVTEQDSKDSTYSLSSTLTLSKADYEKHKVYACEVTHQGLSSPVTKSFNRGEC
B24: 18E3.007 (antibody, human IgG1, kappa, N297G)
heavy: not shown
light: B23 light
B25: 18E3.008 (antibody, human IgG1, kappa, N297G)
heavy: not shown
light: B23 light
B26: 18E3.005 (antibody, human IgG1, kappa, N297G)
heavy: not shown
light: B23 light with Q79L
B27: 18E3.004 (antibody, human IgG1, kappa, N297G)
heavy: not shown
light: B23 light with Q79L
B28: 18E3.003 (antibody, human IgG1, kappa, N297G)
heavy: not shown
light: B23 light
B29: 18E3.002 (antibody, human IgG1, kappa, N297G)
heavy: not shown
light: B23 light with Q79L
B30: 18E3.006 (antibody, human IgG1, kappa, N297G)
heavy: not shown
light: B23 light with Q79L

The binders below were run against T1, Rhesus GIPR (assay: cell-based or functional assay).

Row | Binder | Rhesus GIPR CAMP Assay (Conc. mAb @ 60% Inhibition in nM) [nM]
1 | B1 | 0.43
2 | B2 | 0.66
3 | B3 | 0.92
4 | B4 | 0.83
5 | B5 | 0.95
6 | B6 | 0.67
7 | B7 | 0.56
8 | B8 | 0.45
9 | B9 | 0.48
10 | B10 | 0.42
11 | B11 | 0.6
12 | B12 | 0.33
13 | B13 | 0.39
14 | B14 | 0.79
15 | B15 | 0.43
16 | B16 | 0.4
17 | B17 | 0.51
18 | B18 | 0.65
19 | B19 | 4
20 | B20 | 0.71
21 | B21 | 0.86
22 | B22 | 0.22
23 | B23 | 0.25
24 | B24 | 0.24
25 | B25 | 0.37
26 | B26 | 0.1
27 | B27 | 0.06
28 | B28 | 0.12
29 | B29 | 0.16
30 | B30 | 0.12
